These results are taken from article PMC4786428, “Recombinational branch migration by the RadA/Sms paralog of RecA in Escherichia coli”.

The data set addresses T1, RadA S372A (Escherichia coli, UniProt P24554 1-460, S372A).
T1 sequence: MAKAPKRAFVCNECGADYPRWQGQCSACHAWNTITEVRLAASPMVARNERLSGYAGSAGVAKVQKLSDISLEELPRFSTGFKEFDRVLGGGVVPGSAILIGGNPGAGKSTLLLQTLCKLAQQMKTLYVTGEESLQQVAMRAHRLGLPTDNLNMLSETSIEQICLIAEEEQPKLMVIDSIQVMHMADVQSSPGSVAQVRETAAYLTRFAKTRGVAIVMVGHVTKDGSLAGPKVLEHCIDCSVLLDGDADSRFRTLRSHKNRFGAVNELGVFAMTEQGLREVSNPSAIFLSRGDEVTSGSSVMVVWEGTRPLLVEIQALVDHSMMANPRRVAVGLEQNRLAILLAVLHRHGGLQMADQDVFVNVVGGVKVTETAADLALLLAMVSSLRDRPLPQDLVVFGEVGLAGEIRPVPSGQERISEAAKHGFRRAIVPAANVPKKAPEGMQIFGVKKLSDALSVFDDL
Briefly: EMSA; 1 mM ADP; retains DNA binding; 50 mM Tris-HCl pH 7.5, 10 mM MgCl2, 0.1 mM EDTA, 75 mM NaCl, 5 mM DTT, 100 ug/ml BSA, 1 mM nucleotide, 100 fmol DNA, 37 C for 20-30 min; 6% TBE polyacrylamide gel at room temperature. To be noted: protein: recombinant; tags: eXact tag cleaved; 2 extra N-terminal residues Thr-Ser remain; chain copies: 6.

For the molecule TTTTTTTTTTTTTTTTTTTTTTTTTTTTTT (ssDNA) [poly(dT)30], the binding result was “binds”.
